This passage reports Degree of inhibition (times) and Infection effectiveness (percentage of fluorescent cells) results from patent publication US20170121390A1.

In this assay the target is HCV E1-E2 protein complex of hepatitis C virus isolate H77 (genotype 1a), expressed from plasmid pcDNA3.1-E1E2 (hepatitis C virus isolate H77 (genotype 1a)) (UniProt P27958). As to the kind of experiment: cell-based or functional assay.

“fully human monoclonal antibody Adalimumab (brand name Humira)” came in with a Degree of inhibition (times) of 1.09 times and an Infection effectiveness (percentage of fluorescent cells) of 58.1%.
